No end group written: not given here. *: point of attachment. FITC = O=C1OC2(c3ccc(O)cc3Oc3cc(O)ccc32)c2ccc(NC(=S)*)cc21
Legend:
[1] = target: T1, PBP1bγ (penicillin-binding protein 1b, gamma form) (E. coli, UniProt P02919-2 1-799); test: fluorescence polarisation; fluorescence anisotropy; FITC-Lys69–Gln93 probe at 100 nM, serial dilutions of the proteins in their specific buffer, 384-well plates, 30 min at 25 °C; conditions: both partners purified
T1 construct: also called 1b WT
T1 sequence (looked up): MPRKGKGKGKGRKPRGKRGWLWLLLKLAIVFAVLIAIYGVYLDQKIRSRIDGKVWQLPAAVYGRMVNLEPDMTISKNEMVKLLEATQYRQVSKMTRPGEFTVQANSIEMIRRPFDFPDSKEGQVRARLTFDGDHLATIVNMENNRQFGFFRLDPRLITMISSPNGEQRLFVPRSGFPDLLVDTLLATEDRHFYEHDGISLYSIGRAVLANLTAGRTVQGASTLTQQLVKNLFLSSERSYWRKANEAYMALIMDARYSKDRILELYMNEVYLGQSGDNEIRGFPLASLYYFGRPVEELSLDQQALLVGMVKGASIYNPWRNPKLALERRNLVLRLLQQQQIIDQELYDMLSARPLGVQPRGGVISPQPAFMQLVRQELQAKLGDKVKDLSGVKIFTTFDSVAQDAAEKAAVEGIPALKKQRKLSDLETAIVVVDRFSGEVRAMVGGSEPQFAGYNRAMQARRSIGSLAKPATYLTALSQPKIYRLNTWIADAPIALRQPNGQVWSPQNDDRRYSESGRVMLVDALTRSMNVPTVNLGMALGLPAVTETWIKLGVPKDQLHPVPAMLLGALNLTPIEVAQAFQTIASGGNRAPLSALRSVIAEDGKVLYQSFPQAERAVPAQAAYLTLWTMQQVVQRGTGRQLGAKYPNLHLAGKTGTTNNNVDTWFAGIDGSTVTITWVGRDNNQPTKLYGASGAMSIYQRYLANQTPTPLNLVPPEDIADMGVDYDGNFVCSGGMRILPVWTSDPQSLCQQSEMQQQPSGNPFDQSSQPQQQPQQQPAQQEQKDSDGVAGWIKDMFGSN

PBP1b (positions 58–804) = target: T2, PBP1b (positions 58–804) (E. coli, UniProt P02919 58-804); test: crystal structure; co-crystallization of PBP1b (Lys58–Ser804) with moenomycin A (1:1) and EFtsN peptide (3:1), hanging drop, 20 °C; 2.4 Å; conditions: both partners purified
T2 construct: Crystallized with moenomycin A (1:1) and the EFtsN peptide (3:1); also called PBP1b (Lys58–Ser804); source: purified (details in the supporting information)
T2 sequence (looked up): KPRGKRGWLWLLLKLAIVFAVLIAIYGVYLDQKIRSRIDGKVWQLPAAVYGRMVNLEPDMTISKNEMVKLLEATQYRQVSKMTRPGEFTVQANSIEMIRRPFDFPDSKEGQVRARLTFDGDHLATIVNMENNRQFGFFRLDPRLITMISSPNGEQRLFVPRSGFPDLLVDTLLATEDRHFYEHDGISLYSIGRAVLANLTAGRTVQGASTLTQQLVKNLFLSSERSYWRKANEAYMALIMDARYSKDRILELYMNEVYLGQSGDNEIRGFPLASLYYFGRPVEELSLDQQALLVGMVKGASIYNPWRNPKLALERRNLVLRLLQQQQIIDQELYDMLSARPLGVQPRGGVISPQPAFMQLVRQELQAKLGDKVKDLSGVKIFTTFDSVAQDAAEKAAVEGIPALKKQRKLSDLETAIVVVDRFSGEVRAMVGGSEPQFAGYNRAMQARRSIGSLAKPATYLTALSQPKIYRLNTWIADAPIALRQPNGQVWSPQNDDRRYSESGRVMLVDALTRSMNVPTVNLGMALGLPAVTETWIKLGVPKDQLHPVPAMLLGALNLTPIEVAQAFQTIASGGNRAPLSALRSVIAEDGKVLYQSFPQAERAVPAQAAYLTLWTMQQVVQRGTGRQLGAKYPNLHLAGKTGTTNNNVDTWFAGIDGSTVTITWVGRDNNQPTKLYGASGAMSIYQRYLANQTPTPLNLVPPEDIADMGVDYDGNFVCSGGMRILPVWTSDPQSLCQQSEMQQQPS

[2] = test system: E. coli EJ801 (ΔponB-ponA^ts); test: microscopy of EJ801 cells, cell morphology and length; format: cell-based, Escherichia coli; parameters: cell length L: unit not given here; conditions: EJ801 after 1 h at 42 °C, n = 250, phase contrast, ImageJ/ObjectJ
Description: Samples were taken from the complementation cultures (42 °C) at different time (1-h intervals), and the cells were fixed as described ([63]). Photographs were taken with a cooled AxioCam MRm (Zeiss) mounted on a Zeiss Axio Imager. Z1 microscope, and the images were acquired in phase-contrast mode using the AxioVision Rel. 4.5 (Zeiss) software. The cell morphologies analysis were determined using ImageJ software (RRID:SCR_003070) running under plugin ObjectJ (RRID:SCR_019190).

PBP1b R141A/R397A = target: T3, PBP1b R141A/R397A (E. coli, UniProt P02919 1-844, R141A | R397A); test: cell-based or functional assay
T3 sequence (looked up): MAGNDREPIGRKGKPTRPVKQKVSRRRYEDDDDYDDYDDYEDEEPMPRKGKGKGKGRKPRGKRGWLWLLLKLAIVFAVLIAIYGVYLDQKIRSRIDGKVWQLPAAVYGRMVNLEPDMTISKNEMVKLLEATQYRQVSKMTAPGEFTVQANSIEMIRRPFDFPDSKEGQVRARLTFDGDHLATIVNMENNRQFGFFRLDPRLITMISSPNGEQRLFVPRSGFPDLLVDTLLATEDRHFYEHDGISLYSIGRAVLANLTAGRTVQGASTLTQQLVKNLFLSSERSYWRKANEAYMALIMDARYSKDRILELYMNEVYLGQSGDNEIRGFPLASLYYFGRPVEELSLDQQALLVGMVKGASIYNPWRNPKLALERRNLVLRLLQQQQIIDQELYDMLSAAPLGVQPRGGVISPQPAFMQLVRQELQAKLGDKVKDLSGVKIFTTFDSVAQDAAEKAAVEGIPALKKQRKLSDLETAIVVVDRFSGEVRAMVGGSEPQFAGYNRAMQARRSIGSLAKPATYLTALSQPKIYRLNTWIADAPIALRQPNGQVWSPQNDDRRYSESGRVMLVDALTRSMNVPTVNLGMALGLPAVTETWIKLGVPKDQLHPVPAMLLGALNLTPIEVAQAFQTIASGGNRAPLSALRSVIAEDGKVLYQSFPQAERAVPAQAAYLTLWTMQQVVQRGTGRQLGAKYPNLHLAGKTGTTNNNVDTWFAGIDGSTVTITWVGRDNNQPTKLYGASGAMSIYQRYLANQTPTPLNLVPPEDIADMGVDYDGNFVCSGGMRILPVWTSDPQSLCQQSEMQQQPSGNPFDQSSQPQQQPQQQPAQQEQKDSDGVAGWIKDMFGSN

PBP1b^R141A/R397A = format: biochemical, Escherichia coli; conditions: versus PBP1b^WT; GTase, dansyl-lipid II; mean ± s.d. of three experiments
PBP1b = target: T4, PBP1b (Escherichia coli, UniProt P02919); conditions: cited from earlier work
T4 sequence (P02919 1-799 isoform P02919-2): T1 sequence (looked up)
From the text: Bacteria generally have at least one bifunctional (GTase/TPase) PBP of class A and one monofunctional (TPase only) PBP of class B ([2], [13]). E. coli contains three aPBPs: PBP1a, 1b, and 1c, and two bPBPs: PBP2 and PBP3, the latter being involved in cell elongation and division, respectively ([14]). PBP1a and PBP1b are major PG synthases and at least one of them is required for cell viability ([15]).

B1: FITC-labeled peptide (FITC-Lys69–Gln93) of FtsN (peptide)
peptide: {FITC}-KVTGNGLPPKPEERWRYIKELESRQ
notes: also called F-EFtsN; fluorescent EFtsN peptide; source: synthetic peptide, bought: Synpeptide (Shanghai, China)
[1]
  Kd: 8.1 ± 1.7 µM

B2: EFtsN peptide (Leu75–Gln93), unlabeled (peptide)
peptide: LPPKPEERWRYIKELESRQ
notes: FtsN, E. coli, residues Leu75–Gln93 (essential region around helix H2); also called essential region of FtsN; synthetic peptide Leu75–Gln93; source: synthetic peptide, bought: Synpeptide (Shanghai, China)
PBP1b (positions 58–804)
  binding result: binds

B3: PBP1b^WT: PBP1b wild-type (protein)
chain: T1 sequence (looked up)
[2]
  cell length L: 2.17 ± 0.46

B4: HisFtsN (full-length FtsN) (natural protein, E. coli, UniProt P29131 1-319, looked up)
chain: MAQRDYVRRSQPAPSRRKKSTSRKKQRNLPAVSPAMVAIAAAVLVTFIGGLYFITHHKKEESETLQSQKVTGNGLPPKPEERWRYIKELESRQPGVRAPTEPSAGGEVKTPEQLTPEQRQLLEQMQADMRQQPTQLVEVPWNEQTPEQRQQTLQRQRQAQQLAEQQRLAQQSRTTEQSWQQQTRTSQAAPVQAQPRQSKPASSQQPYQDLLQTPAHTTAQSKPQQAAPVARAADAPKPTAEKKDERRWMVQCGSFRGAEQAETVRAQLAFEGFDSKITTNNGWNRVVIGPVKGKENADSTLNRLKMAGHTNCIRLAAGG
PBP1b R141A/R397A
  fold decrease in activation of the GTase activity of PBP1b R141A/R397A by FtsN against the WT protein, continuous fluorescence assay: 2 fold

B5: LpoB: outer-membrane lipoprotein LpoB (protein, UniProt P0AB38 20-213, looked up)
Penicillin-binding protein …: CVGQREPAPVEEVKPAPEQPAEPQQPVPTVPSVPTIPQQPGPIEHEDQTAPPAPHIRHYDWNGAMQPMVSKMLGADGVTAGSVLLVDSVNNRTNGSLNAAEATETLRNALANNGKFTLVSAQQLSMAKQQLGLSPQDSLGTRSKAIGIARNVGAHYVLYSSASGNVNAPTLQMQLMLVQTGEIIWSGKGAVSQQ
PBP1b^R141A/R397A
  activation of PBP1b^R141A/R397A by LpoB: remained unchanged
PBP1b
  catalytic activities of PBP1b (literature): stimulates both of its catalytic activities

— PMC7939390 (The Journal of Biological Chemistry, 2020)
